Data on one molecule can be found in patent CN113817056A (CHONGQING PREC BIOTECH CO LTD; CHONGQING JINGZHUN BIO …, dated 2021).

Test [1] addresses T1, hCD70-hFc (human, UniProt P32970 39-193, limits assumed).
T1 construct: the order here follows the printed name; not shown: human immunoglobulin Fc (hFc)
T1 sequence (looked up): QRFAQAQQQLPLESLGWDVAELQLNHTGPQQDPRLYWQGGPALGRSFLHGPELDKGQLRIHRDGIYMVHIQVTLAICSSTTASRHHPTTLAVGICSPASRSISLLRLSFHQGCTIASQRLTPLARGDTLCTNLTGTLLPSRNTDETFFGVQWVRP
As to the kind of experiment: BLI, scFv on HIS1K sensor, hCD70-hFc analyte; row for 50 nM (same fit value in all rows).

Test [2] deals with T1, hCD70-hFc. As to the kind of experiment: BLI, scFv on HIS1K sensor, hCD70-hFc analyte; row for 100 nM (same fit value in all rows).
In test [3] the target is T1, hCD70-hFc. In words: BLI, scFv on HIS1K sensor, hCD70-hFc analyte; row for 25 nM (same fit value in all rows). A general note: BLI is a label-free optical method that tracks binding on a fibre tip over time.
Test [4] deals with T1, hCD70-hFc. In words: BLI, scFv on HIS1K sensor, hCD70-hFc analyte; row for 12.5 nM (same fit value in all rows).

B1: 靶向CD70 ScFv (scFv, V domains shown)
VH: EVQLVQSGPEVKKPGASVKVSCKASGYTFTDYYMNWVRQMHGKGLEWMGVINPYNGGTDYNQKFKGRVTITADKSTSTAYMELSSLRSEDTAVYYCARSVYDYPFDYWGQGTLVTVSS
VL: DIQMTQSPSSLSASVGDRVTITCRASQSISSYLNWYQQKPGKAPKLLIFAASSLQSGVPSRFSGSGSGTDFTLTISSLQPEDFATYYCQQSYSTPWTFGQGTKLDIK
In the case of B1, the Kd in test [1], in test [2], in test [3] and in test [4] was 21.4 nM in each case. For the same molecule, the koff in test [1], in test [2], in test [3] and in test [4] was 0.0016 s⁻¹ each time. Further, the kon in test [1], in test [2], in test [3] and in test [4] was 74000 M⁻¹ s⁻¹ throughout.

In general, Kd refers to the concentration at which binding is half-saturated. The koff is a measure of how fast the partners let go of each other. A lower koff goes with a long-lived complex. As usually defined, the kon is the rate constant with which the complex forms. A low value points to slow association.
